Results reported in the RNAGym collection of RNA variant scans (doi:10.7554/elife.80360).

B1: HDV Ribozyme (parent)
chain: GGCCGGCAUGGUCCCAGCCUCCUCGCUGGCGCCGGCUGGGCAACAUUCCGAGGGGACCGUCCCCUCGGUAAUGGCGAAUGGGACCCA

Variants of: B1
Experiment: self-cleavage, relative activity (ratio to wild type); higher = more cleavage; co-transcriptional

Variant	self-cleavage
C48A C64U	0.923
C13G U79C	0
U23C A42G	0.227
G29C A83U	0.0462
A78G G80U	0.12
G35A C84G	0.45
G39A C85A	0.332
C57G U79C	0.598
U20A C21A	0.0536
G11A U65G	0.305
C7U U9A	0.86
C15U G53C	0.956
U69C A71U	1.01
U47G C49G	0.87
G25U C86G	0.256
A8U C85A	0.959
U20C A87G	0.282
C3U C75U	0.197
C7U C41G	0.225
C14U G40C	0.391
A42C A56U	0.332
A8U A51C	0.633
A43C A77U	0
A16U U60G	1.15

Variant	self-cleavage
U9C G40U	0.449
A16C C66G	0.554
G10C C63G	0.852
G67C G74A	0.415
U79A A83U	0.256
C4A G50C	0.456
C18A A42U	0.0437
G1C G11A	0.0652
C26A A56U	1.12
C36A U69G	0.161
G54U A70C	0.515
U37G A56C	0
U60G U65C	1.17
C4A C26A	0.332
C15U A77U	0.246
G28A C48A	0.0978
G29A C61G	0.107
G2A C36A	0.228
G29U G50U	0.12
G28U G50A	0.0791
G2U C84A	0.0219
A42C G50A	0.325
A70G U79G	0.582
G28A G80C	0.0396

Variant	self-cleavage
C26U	1.02
C15G C58G	0.612
G28A U72A	0.119
A16U C36U	0.631
G68U C85G	1.07
C22A C24G	0
C3A U12A	0.0848
A43G C75U	0.0573
C3U G39A	0.21
C32U G80U	0.145
A16C C84G	0.87
G55A C85A	1.02
G11A A56G	0.346
A8G G73C	0.437
C22U C49U	0.45
U20A C33A	0
G6U C66A	0.443
G59C G80C	0.222
G5A C24G	0
G28C U65A	0.104
G11U U27A	0.511
G6A C19U	0.0875
A16G U65G	1.01
G31A G73A	0.234

Variant	self-cleavage
U47C A78U	0.277
C14G C26A	0.639
U27G G34C	0.0692
G35A C61U	0.511
C19G A83G	0.0678
G40C C61G	0.241
C18U G68C	0.544
G35C A83G	0.237
G29A C44U	0.151
C58A A70G	0.807
G1C U12A	0
C14U C26A	1.08
U69A C84G	0.578
G38A C49G	0.151
G5C U60G	0.185
G5U C62G	0.346
G39A C75U	0.178
U12G A43U	0.0639
C21G U37A	0.119
G10C G40U	0.776
A71C A78C	0.219
G68U A87C	1.01
G2U C57U	0.0365
C18A C30G	0.0573

Variant	self-cleavage
G29C A43C	0.0489
A45C A77U	0.142
C26U C44G	0.831
U23C G67C	0.969
C4A	0.315
C58A G67C	0.886
C4U G76U	0.831
C4U G76C	0.984
C24U C75A	0.0639
C58U C85A	1.13
C14A G73C	0.104
C41G C66U	0.683
C4U G35A	0.173
G38C G54U	0.185
C14U G81A	1.32
G10C U20A	0.0519
U23G C33U	0.569
G11A G28U	0.0339
C41G U72G	0.795
G1U U37G	0.31
A51G A87C	0.751
C14U A45G	0.988
G34A U47G	0.0791
C21G U65G	0

Variant	self-cleavage
G39A A45U	0.389
U20G C36A	0
C18G A71U	0.0723
G38U G68A	0.163
C48G G53A	1.06
C49U C57A	1.07
A8C C33G	0.0923
C18G G31U	0.0396
U9C U60A	0.862
C15G C61A	0.516
C21G A45G	0.185
C13G C36G	0.158
C15A C49U	0.656
G11U C30U	0.0923
C41G C64G	0.536
C15U G68A	0.759
C32U A77C	0.162
C15A G80U	0.899
C15G A87C	0.799
C33A C86U	0.244
C24U G81U	0.169
G29A G73U	0.112
A8C G10C	0.623
C49G C64A	0.375

Variant	self-cleavage
G55C G82A	0.447
G38C A51C	0.277
U37A G55U	0.0723
C63A C86U	0.784
G29U C49U	0.0583
C18G C58G	0
G34U A45U	0.0378
U27A G76C	0.943
U20C U79C	0.0845
G28C C86U	0
C13A C21G	0.0332
C3U G11A	0.262
G2U G34C	0.0484
A70G C75G	0.219
G1A C44G	0.138
C63G A78U	0.185
C15G A71G	0.727
C14U C18U	0.591
A42U C86G	0.519
U60C A71G	0.886
G5U G39C	0.26
U65G G73A	0.363
C13A C19A	0.0302
A56C C61U	0.942

Variant	self-cleavage
C26U C75G	0.287
G59A A71U	0.929
G6U U37C	0.943
U37G G76U	0.104
C49U G53U	1.02
G28C A45U	0.142
G53U C84G	0.554
G11U U47G	0.246
C61U A70U	1.02
C14U C30A	0.675
G5U A87G	0.636
C44G G73C	0.655
C18A C32G	0.0875
C18A C32U	0.145
A51C C63G	0.322
G29U C61G	0.203
C13G A87U	0.0911
C44A G76U	0.767
U9A A70G	0.918
G17A C48G	0.46
C49A G67U	0.945
U20A C49G	0.128
A42U C48G	0.646
U12A C19A	0.0287

Variant	self-cleavage
G53A A77U	0.483
C66U C84U	0.683
G1A G81U	0.0426
C32G G54U	0.153
G25A C44G	0.0923
C44G G81C	0.306
G10U U79G	0.38
G35U G74A	0.058
C57U A83U	0.475
C18U G81U	0.281
C3U G31C	0.168
G39A C49G	0.366
C22A G53A	0.222
C61G G73A	0.475
C36G A43U	0.0755
C64U A77C	0.318
G25A A87G	0.163
C15G G54A	0.534
G76C A83G	0.554
G54C G76A	1.1
A8C A16G	0.831
G1C U79G	0.0723
C48A A87U	1.03
C15U U65A	0.831

Variant	self-cleavage
U12A C26U	0.982
G29C G50A	0.0277
C30U C44G	0.135
C14G A78U	0.185
C48A G54A	1.06
C7U U60A	0.682
C48A C66A	0.92
G29U G74U	0.0963
C7A C48U	0.542
A8G C32G	0.0573
G80U A83C	0.254
C58G G59C	1.03
G11U C24G	0.0966
G50U C86A	0.727
G31C U69A	0.299
G35A G54C	0.69
C49U G55A	0.866
G52C C84U	0.537
C21G U69G	0
A71C C86G	0.63
U9G U72C	0.415
U27A C48U	0.95
G11U U12A	0.116
U69A C75A	0.119

Variant	self-cleavage
A70G C85A	1.07
C13G G39U	0.0361
U9A C22G	0.0519
G10C C57G	0.81
G17U A51C	0.831
C32U G50U	0.844
A70C A71G	0.831
U23C A43C	0.465
C48G G81A	0.489
C3G C58U	0.709
G31C A56G	0.166
C4U G80A	0.242
G54C A78G	0.507
G39A G40C	0.459
G25A A77U	0
C66A G67A	0.864
U23G G54A	0.928
C13A C32A	0.0326
U9G G50A	1.18
A56G U65C	1.05
C22A A42G	0
C22A A42C	0
G34A A78U	0.0489
G6A C85U	0.735

Variant	self-cleavage
G73A A78U	0.106
G10U G34C	0.189
U20A A43C	0.0978
U20G G82C	0.246
G2A C22G	0.0191
U20C C66A	0.135
C30A C75G	0
G17A C22A	0.128
G17U C21G	0
U65A G76C	1.11
C22U A70C	0.656
U27C C32U	0.115
G25C C48G	0.133
C36U A71G	0.653
C22A U47G	0.232
A8C U46A	0.217
C4G G53U	0.424
C26U G38C	0.155
G10A G67A	0.66
C13G C85U	0
A45U A87G	0.737
U9G C30A	0.653
C22G C63G	0
G6C A71C	0.0791

Variant	self-cleavage
G1A A70G	0.214
G40A U60G	0.916
C63U A71U	1.02
U37A G76U	0.469
C14G U79C	0.173
C63G	0.764
G31U A45C	0.119
U47A U79A	0.598
C58A C66G	1.25
U12G G39U	0.447
G31C C62A	0.181
C18A G82C	0.122
C4U C64A	0.639
G17A G34U	0.0346
C4A U72C	0.111
U23G G50U	0.607
G35U A42C	0.115
G11C G74A	0.117
C14G C32G	0
C19U G50U	0.159
G5C C33G	1.43
C19U A70C	0.0906
C41G A70C	0.475
G5C G10C	0

Variant	self-cleavage
G38U A45C	0.181
C62G A78C	0
C32G G34A	0.0875
A56U C75A	0.0875
A51C C57A	1.02
G10A G82C	0.231
C63G G73A	0.424
G6A C63G	0.601
C4A C64A	0.157
C21A A45G	0.0615
U23A G35U	0.431
C64U A71G	1.07
G38C G82C	0.222
G2C G25U	0.0702
U20C C86A	0.158
G10C C58U	1.23
G5A G50U	0.143
C57U U69C	0.831
C21U U23G	0.13
C4A C7A	0.0449
U27C C36A	0.142
G25U G55A	0.201
